Experimental data from patent US8673594B2, “Methods for stimulating nervous system regeneration and repair by regulating arginase I and polyamine synthesis” (Research Foundation of City University of New York, priority 2000, dated 2014).

Assays:
[1] = system: cerebellar neurons on purified CNS myelin; assay: Neurite outgrowth of cerebellar neurons on purified CNS myelin substrate; format: cell-based; details: for block of myelin-dependent inhibition in the presence of a transcriptional inhibitor: dbcAMP 1 mM or BDNF 200 ng/ml priming, with DRB 5 μM; for block of inhibition by myelin after priming: neurons primed with neurotrophin
Procedure: Isolated cerebellar neurons at a density of 20,000 neurons per well were plated onto a substrate of purified CNS myelin and cultured overnight before being fixed and immunostained for GAP43. The length of the longest neurite per neuron from 180-200 neurons was measured and results are the average length+/−SEM. Where indicated, dibutyryl cAMP (dbcA) at 1 mM in the presence or absence of the inhibitor of transcription, 5,6-dichloro-1-b-D-ribofuranosylbenzimidazole (DRB) at 5 μM, was added to each culture. (B) Cerebellar neurons (1×10^6) were plated onto poly-L-lysine and cultured overnight with brain-derived neurotrophic factor (BDNF) at 200 ng/ml, (termed priming) in the presence or absence of DRB at 5 μM, before being transferred to the CNS myelin substrate.
The longest neurite from at least 180-200 neurons were measured. Results are shown as the mean neurite length+/−SEM.
After further incubation, neurons were fixed and immunostained for GAP43. The longest neurite from each neuron for 180-200 neurons were measured. Results are shown as the mean neurite length+/−SEM.
Primed neurons were transferred to either MAG-expressing or control CHO cells (A) or a substrate of CNS myelin (B) for further incubation. Neurons were then fixed and immunostained for GAP43. The longest neurite from each neuron was measured for 180-200 neurons.
Trypsinization was stopped by addition of 5 ml DMEM containing 10% fetal calf serum (FCS) and cells were centrifuged at 800 rpm for 6 min. […] The ganglia were triturated with a fire-polished Pasteur pipette. […] Cells were counted with a Coulter counter.
The neurite outgrowth assay was carried out by adding 5×10^4 neurons to the immobilized myelin substrate or 2×10^4 neurons to the CHO cell monolayers. Briefly, confluent monolayers of control and MAG-expressing CHO cells were established over a 24-hour (h) period in individual chambers of an 8-well tissue culture slide (Lab-Tek). […] Culture medium was SATO containing 2% FCS.
GAP43 antibody was detected by staining with Texas Red and arginase antibody was detected with anti-biotin secondary antibody followed by Texas Red-conjugated streptavidin.
After periods of time as indicated, the co-cultures were fixed for 30 min with 4% paraformaldehyde and permeabilized with ice-cold methanol for 2 min. […] After three more washes, the slides were mounted in Permfluor (Baxter) and viewed with a Zeiss fluorescent microscope. The length of the longest neurite for each GAP43-positive neuron was determined using the Biological Detection System image analysis program (Pittsburgh).

[2] = system: ArgI protein in cerebellar neurons; assay: Arginase I protein level in cerebellar neurons by SDS-PAGE and Western blot; format: cell-based; details: for increase in amount of ArgI protein: after 1 hour of exposure; for increase in amount of ArgI protein / time of peak of ArgI protein increase post-treatment / time for which ArgI protein increase was sustained: dbcAMP 1 mM or BDNF 200 ng/ml; for time for which ArgI protein increase was sustained: declining by 24 hours
Procedure: Cerebellar neurons were untreated (−) or exposed to either (A) 200 ng/ml BDNF or (B) 1 mM dbcAMP for 1 hour (h), 3 h, 21 h or 24 h; or (C) 200 ng/ml GDNF (+) for 1 h, 3 h or 5 h and the cells lysed in the presence of protease inhibitors. Total protein (23 μg) was subjected to SDS-polyacrylamide gel (12%) electrophoresis (SDS-PAGE), transferred to nitrocellulose membrane and immunostained with antibody to Arg I. The arrows indicate the position of ArgI polypeptide.
We next assessed the expression of ArgI in cerebellar neurons at the protein level. After exposure of cerebellar neurons to either dbcAMP or BDNF for various times, neurons were lysed, proteins were extracted and the extracted proteins were separated by SDS PAGE before being transferred to membrane and immunostained with a polyclonal antibody against arginase I (see Example 2).
Cerebellar neurons were untreated (−) or exposed to 200 ng/ml GDNF for 1 h, 3 h or 5 h and the cells lysed in the presence of protease inhibitors. Total protein (23 μg) was subjected to SDS-polyacrylamide gel (12%) electrophoresis (SDS-PAGE), transferred to nitrocellulose membrane and immunostained with antibody to Arg I. As shown in FIG. 5(C), the amount of ArgI polypeptide increased at least two-fold after treatment of neurons with GDNF.
Neurons were lysed, proteins were extracted and the extracted proteins (23 μg of total protein per lane) separated by SDS-polyacrylamide gel (12%) electrophoresis (SDS-PAGE) according to well-known procedures (see Ausubel et al., supra). Separated proteins were transferred to nitrocellulose membrane and immunostained with antibody to Arg I. The results are shown in FIG. 5, where the arrows indicate the position of ArgI polypeptide. Polyclonal antibodies were generated against the recombinant arginase of Cavalli at al., Biochemistry, 33, pp. 10652-657 (1994), which described the recombinant expression and purification of rat liver arginase I in E. coli. Polyclonal antibodies were generated essentially according to the procedures of Hanly et al., ILAR Journal, 37, pp. 141-152 (1995), incorporated herein by reference.
For the measurement of arginase I protein levels by immunoblot, cells were harvested and washed with ice cold PBS and then resuspended (100 μl/10^7 cells) in ice cold extraction buffer containing 50 mM Tris-HCl, pH 7.4, 150 mM NaCl, 2 mM EDTA, Triton-X 100, 1 mM phenylmethylsulfonyl fluoride (PMSF), 10 micrograms/ml leupeptin, 1 micromolar pepstatin, 1 mM N-ethylmaleimide (NEM), 2 mM Na3VO4, 20 mM sodium pyrophosphate, and 50 mM NaP). Lysates were centrifuged at 15,000 RPM at 4 degrees centigrade for 30 minutes. The clear cytosol was separated from the insoluble pellet fraction and immediately used for immunoblot. The supernatants were removed carefully and the protein concentration was quantified by the Bradford method. Lysates were mixed with boiling Laemmli's buffer (1× is 100 mM Tris-HCl, pH 6.8, 4% SDS, 200 mM dithiothreitol, 20% glycerol, 2% SDS, 0.2% bromophenol blue, 10 micrograms/ml aprotinin, 10 micrograms/ml leupeptin). The samples were boiled for 10 minutes at 100° C. and centrifuged at 15,000 rpm for 10 seconds. Approximately 30 micrograms of protein was electrophoresed under reducing conditions on 10% SDS-polyacrylamide gels and transferred to nitrocellulose membrane. Membranes were blocked in 5% skim milk in TBST (Tris, pH 7.4; 150 mM NaCl; 0.05% Tween 20) for 30 minutes at room temperature. Blots were probed with primary antibodies overnight at 4° C., followed by incubation with anti-rabbit or anti-mouse IgG conjugated with horseradish peroxidase (Bio-Rad, Hercules, Calif.) for 1 hour. Signals were detected using the ECL system (Amersham Corp, Arlington, Heights, Ill.).

| Molecule | block of inhibition of neurite growth by myelin ([1]; dbcAMP 1 mM added directly to the culture) | block of myelin-dependent inhibition in the presence of a transcriptional inhibitor [1] | increase in amount of ArgI protein [2] | time of peak of ArgI protein increase post-treatment [2] | time for which ArgI protein increase was sustained [2] | block of inhibition by myelin after priming [1] | increase in amount of ArgI polypeptide ([2]; 200 ng/ml GDNF for 1 h, 3 h or 5 h) |
| --- | --- | --- | --- | --- | --- | --- | --- |
| CCCC(=O)Nc1ncnc2c1ncn2[C@@H]1O[C@@H]2COP(=O)(O)O[C@H]2[C@H]1OC(=O)CCC [dbcAMP, dibutyryl cAMP] | blocks the inhibition of neurite growth | completely lost | at least two-fold | around 3 hours | 21 h |  |  |
| GDNF: glial cell line-derived neurotrophic factor (protein, UniProt P39905 78-211, looked up) Glial cell line-derived …: SPDKQMAVLPRRERNRQAAAANPENSRGKGRRGQRGKNRGCVLTAIHLNVTDLGLGYETKEELIFRYCSGSCDAAETTYDKILKNLSRNRRLVSDKVGQACCRPIAFDDDLSFLDDNLVYHILRKHSAKRCGCI |  |  |  |  |  | overcomes inhibition of regeneration by MAG and myelin | at least two-fold |
| BDNF: Brain-derived neurotrophic factor, Trk-family neurotrophin (protein, UniProt P23560 19-247, looked up) Neurotrophic factor BDNF …: APMKEANIRGQGGLAYPGVRTHGTLESVNGPKAGSRGLTSLADTFEHVIEELLDEDQKVRPNEENNKDADLYTSRVMLSSQVPLEPPLLFLLEEYKNYLDAANMSMRVRRHSDPARRGELSVCDSISEWVTAADKKTAVDMSGGTVTVLEKVPVSKGQLKQYFYETKCNPMGYTKEGCRGIDKRHWNSQCRTTQSYVRALTMDSKKRIGWRFIRIDTSCVCTLTIKRGR |  | completely lost | at least two-fold | around 3 hours | 21 h | overcomes inhibition of regeneration by MAG and myelin |  |
